# Laboratory results taken from patent publication US20180179292A1, “RKIP AGONISM IN THE TREATMENT AND PREVENTION OF HEART FAILURE” (Leibniz-Institut für analytische Wissenschaften- ISAS-e.V., priority 2015, published 2018).
# B1: RKIP: Raf kinase inhibitor protein, overexpressed in cells by adenoviral transduction (protein, UniProt P30086 2-187, looked up)
# Phosphatidylethanolamine-bindi …: PVDLSKWSGPLSLQEVDEQPQHPLHVTYAGAAVDELGKVLTPTQVKNRPTSISWDGLDSGKLYTLVLTDPDAPSRKDPKYREWHHFLVVNMKGNDISSGTVLSDYVGSGPPKGTGLHRYVWLVYEQDRPLKCDEPILSNRSGDHRGKFKVASFRKKYELRAPVAGTCYQAEWDDYVPKLYEQLSGK
# modifications: Flag tag
# Experiments:
# [1] = test system: neonatal rat cardiomyocytes (NRCM); assay: Contractile activity of neonatal rat cardiomyocytes; assay type: cell-based; conditions: in the presence of isoprenaline (50 nM), 33° C., beats per minute
# Procedure: NRCM were cultured for 24 h and transduced as indicated with a control virus (LacZ) or a virus encoding RKIP-wt and/or treated with rituximab as indicated. The spontaneous contractions were measured at 33° C. for one minute and normalized for each experiment to LacZ under unstimulated conditions. NRCM were then stimulated with isoproterenol (50 nM) and after 2 min contractions were counted again. SEM; *, p<0.0001, n=5
# Neonatal rat cardiomyocytes were isolated as described (Lorenz et al. Nature 2003, 426:574-579; Vidal et al., Cardiovasc. Res. 2012, 96:255-264). Cardiomyocytes were transduced by adenoviruses or treated with indicated antibodies. To monitor the contractile activity of cardiomyocytes, live cells were examined on a Zeiss Axiovert 135 microscope.
# [2] = test system: neonatal rat cardiac fibroblasts; assay: [3H]Thymidine incorporation in neonatal rat fibroblasts; assay type: cell-based; conditions: adenovirally transduced Flag-RKIP, 0.1% FCS, 96 h
molecule,measurement,setting,value
B1,NRCM contractility,[1],increased NRCM contractility
same,proliferation ([3H]thymidine incorporation),[2],minor but significant anti-proliferative effect
